T1: PSR2 (untagged, purified from E. coli) (P. sojae, UniProt E0W4V5 18-670)
T1 sequence: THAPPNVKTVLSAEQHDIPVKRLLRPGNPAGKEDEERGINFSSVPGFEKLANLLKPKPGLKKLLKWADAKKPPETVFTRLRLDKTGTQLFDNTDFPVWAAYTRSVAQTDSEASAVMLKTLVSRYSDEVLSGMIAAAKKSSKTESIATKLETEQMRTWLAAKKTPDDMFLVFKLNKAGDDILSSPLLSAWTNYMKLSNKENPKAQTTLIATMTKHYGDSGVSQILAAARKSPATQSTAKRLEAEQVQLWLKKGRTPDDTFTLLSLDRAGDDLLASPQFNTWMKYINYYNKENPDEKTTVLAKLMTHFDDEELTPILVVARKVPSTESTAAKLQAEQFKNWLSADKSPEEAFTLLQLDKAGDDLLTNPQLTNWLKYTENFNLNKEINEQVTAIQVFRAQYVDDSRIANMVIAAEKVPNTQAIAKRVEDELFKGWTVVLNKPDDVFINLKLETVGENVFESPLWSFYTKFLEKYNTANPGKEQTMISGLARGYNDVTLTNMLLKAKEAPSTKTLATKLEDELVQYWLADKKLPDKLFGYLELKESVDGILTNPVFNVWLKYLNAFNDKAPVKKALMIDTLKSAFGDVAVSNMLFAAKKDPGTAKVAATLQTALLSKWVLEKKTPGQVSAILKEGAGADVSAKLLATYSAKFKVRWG


What was measured:
[1] = target: ATB’g (Arabidopsis PP2A B subunit) (Arabidopsis thaliana) (UniProt Q8RW96); experiment: ITC
[2] = target: PSR2 (untagged, purified from E. coli) (P. sojae) (UniProt E0W4V5); experiment: ITC
[3] = target: T1, PSR2 (untagged, purified from E. coli); experiment: pull-down

ATB’g (Arabidopsis PP2A B subunit) (Arabidopsis thaliana), sequence (Q8RW96 whole entry): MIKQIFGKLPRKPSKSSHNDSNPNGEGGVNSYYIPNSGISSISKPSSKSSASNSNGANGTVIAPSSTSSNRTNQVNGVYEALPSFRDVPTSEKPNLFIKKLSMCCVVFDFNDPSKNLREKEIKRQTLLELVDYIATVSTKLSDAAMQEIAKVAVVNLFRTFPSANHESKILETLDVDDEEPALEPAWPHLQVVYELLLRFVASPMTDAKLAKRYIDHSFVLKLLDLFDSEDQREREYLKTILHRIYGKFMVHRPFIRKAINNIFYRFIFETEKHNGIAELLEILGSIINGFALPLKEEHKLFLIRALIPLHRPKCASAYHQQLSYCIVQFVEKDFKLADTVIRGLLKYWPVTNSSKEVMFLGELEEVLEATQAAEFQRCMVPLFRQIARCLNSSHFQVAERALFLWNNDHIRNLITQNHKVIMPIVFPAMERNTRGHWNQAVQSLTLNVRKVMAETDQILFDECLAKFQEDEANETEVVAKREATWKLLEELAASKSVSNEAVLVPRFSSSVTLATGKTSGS

Row | Molecule | Kd [1] [µM] | Kd [2] [µM] | binding result [3]
1 | 6×His-PDF1 (full-length PDF1, purified from E. coli) (from UniProt Q9S728 24-306) (natural protein) | 3.33 | 0.35 | –
2 | RCN1 (purified from E. coli) (natural protein) MAMVDEPLYPIAVLIDELKNDDIQLRLNSIRRLSTIARALGEERTRKELIPFLSENSDDDDEVLLAMAEELGVFIPFVGGIEFAHVLLPPLESLCTVEETCVREKAVESLCKIGSQMKENDLVESFVPLVKRLAGGEWFAARVSACGIFHVAYQGCTDVLKTELRATYSQLCKDDMPMVRRAAASNLGKFATTVESTFLIAEIMTMFDDLTKDDQDSVRLLAVEGCAALGKLLEPQDCVARILPVIVNFSQDKSWRVRYMVANQLYELCEAVGPDCTRTDLVPAYVRLLRDNEAEVRIAAAGKVTKFCRLLNPELAIQHILPCVKELSSDSSQHVRSALASVIMGMAPILGKDSTIEHLLPIFLSLLKDEFPDVRLNIISKLDQVNQVIGIDLLSQSLLPAIVELAEDRHWRVRLAIIEYVPLLASQLGIGFFDDKLGALCMQWLQDKVYSIREAAANNLKRLAEEFGPEWAMQHLVPQVLDMVNNPHYLHRMMVLRAISLMAPVMGSEITCSKFLPVVVEASKDRVPNIKFNVAKLLQSLIPIVDQSVVDKTIRQCLVDLSEDPDVDVRYFANQALNSIDGSTAAQS | – | – | binds

Reference: doi:10.1101/2023.05.05.539533 (bioRxiv, 2023)
